Results as given in US20230257449A1 (published 2023).
Substitutions are numbered along the chain they refer to.

B1: VH 10 / VL 6 (antibody, V domains shown)
VH: QVQLVQSGAEVKKPGSSVKVSCKASGFTFSTYAIHWVRQAPGQGLEWMGVISYDANYKYYAQKFQGRVTITRDNSKSTAYMELSSLRSEDTAVYYCARDSRLRSLLYFEWLSQGYFDYWGQGTTLTVSS
VL: EIVMTQSPATLSVSPGERATLSCRSSQSITFDYKNYLAWYQQKPGQAPRLLIYWGSTRATGIPARFSGSGSGTEFTLTISSLQSEDFAVYYCQQHYRTPPSFGQGTKVEIK
B2: VH 9 / VL 4 (antibody, V domains shown)
VH: B1 VH with R98K, R101Q
VL: DIVMTQSPDSLAVSLGERATINCKSSQSVTFDYKNYLAWYQQKPGQPPKLLIYWASTRESGVPDRFSGSGSGTDFTLTISSLQAEDVAVYYCQQHYRTPPSFGQGTKVEIK
B3: VH 11 / VL 4 (antibody, V domains shown)
VH: B1 VH with S16A, H35N, P41T, V50W, I70M, N74T, K76I, R98K, R101Q
VL: B2 VL
B4: VH 10 / VL 4 (antibody, V domains shown)
VH: B1 VH
VL: B2 VL
B5: VH 8 / VL 3 (antibody, V domains shown)
VH: EVQLLESGGGLVQPGGSLRLSCAASGFTFSSYAMHWVRQAPGKGLEWVAVISYDANYKYYADSVKGRFTISRDNSKNTLYLQMNSLRAEDTAVYYCAKDSRLRSLLYFEWLSQGYFDYWGQGTLVTVSS
VL: DIQMTQSPSSLSASVGDRVTITCRSSQSITFDYKNYLAWYQQKPGKAPKLLIYAASSLQSGVPSRFSGSGSGTDFTLTISSLQPEDFATYYCQQHYRTPPSFGQGTKVEIK
B6: VH 12 / VL 2 (antibody, V domains shown)
VH: B1 VH with S16A, H35N, P41T, I70M, N74T, K76I, R101Q
VL: B5 VL with A54W, A55G
B7: VH 5 / VL 6 (antibody, V domains shown)
VH: B5 VH with E1Q, L5V, L11V, G16R, S31T, A49C, I70C, K98R
VL: B1 VL
B8: VH 6 / VL 2 (antibody, V domains shown)
VH: B5 VH with E1Q, L5V, L11V, G16R, S30D, S31T, K98R
VL: B5 VL with A54W, A55G
B9: VH 7 / VL 6 (antibody, V domains shown)
VH: B5 VH with A49S, R101Q, L124T, V125L
VL: B1 VL
B10: VH 5 / VL 4 (antibody, V domains shown)
VH: B5 VH with E1Q, L5V, L11V, G16R, S31T, A49C, I70C, K98R
VL: B2 VL
B11: VH 3 / VL 2 (antibody, V domains shown)
VH: B5 VH with E1Q, L5V, L11V, G16R, S31T, R101Q
VL: B5 VL with A54W, A55G
B12: VH 3 / VL 6 (antibody, V domains shown)
VH: B5 VH with E1Q, L5V, L11V, G16R, S31T, R101Q
VL: B1 VL
B13: VH 8 / VL 7 (antibody, V domains shown)
VH: B5 VH
VL: B1 VL with W54S, G55A
B14: VH 10 / VL 2 (antibody, V domains shown)
VH: B1 VH
VL: B5 VL with A54W, A55G
B15: VH 3 / VL 3 (antibody, V domains shown)
VH: B5 VH with E1Q, L5V, L11V, G16R, S31T, R101Q
VL: B5 VL
B16: VH 5 / VL 2 (antibody, V domains shown)
VH: B5 VH with E1Q, L5V, L11V, G16R, S31T, A49C, I70C, K98R
VL: B5 VL with A54W, A55G
B17: VH 8 / VL 6 (antibody, V domains shown)
VH: B5 VH
VL: B1 VL

The binders below were run against H1 (A/Cali/09/2007) (assay: ELISA).

B1 and B2 are within 1.5-fold of each other in EC50: 0.0175 nM for the first, 0.0186 nM for the second.

B3 and B4 are within 1.5-fold of each other in EC50: 0.0244 nM for the first, 0.0181 nM for the second.

B5 and B6 are within 1.5-fold of each other in EC50: 0.0218 nM for the first, 0.0161 nM for the second.

Going from B7 to B8, the EC50 falls from 0.0317 nM to 0.0207 nM (1.5-fold). The second is the more potent here.

B9 and B10 are within 1.5-fold of each other in EC50: 0.0239 nM for the first, 0.0285 nM for the second.

B11 and B12 are within 1.5-fold of each other in EC50: 0.019 nM for the first, 0.0268 nM for the second.

B13 and B14 are within 1.5-fold of each other in EC50: 0.0318 nM for the first, 0.0227 nM for the second.

B15 and B16 are within 1.5-fold of each other in EC50: 0.0246 nM for the first, 0.0231 nM for the second.

Work on B17 yielded an EC50 of 0.0269 nM.

What follows are binders tested against H3 (A/Brisbane/10/2007) (influenza A virus H3 …) (assay: ELISA).

B1 and B2 are within 1.5-fold of each other in EC50: 0.0695 nM for the first, 0.0608 nM for the second.

Compared with B3, B4 is 4600-fold lower in EC50: 112 nM for the first, 0.0241 nM for the second. The second is the more potent here.

First: B5
Second: B6
The EC50 of the first is 3100-fold lower: 0.0286 nM for the first, 88.9 nM for the second.

Going from B7 to B8, the EC50 rises from 0.0295 nM to 0.108 nM (3.7-fold). The first is the more potent here.

Compared with B9, B10 is 10-fold lower in EC50: 0.274 nM for the first, 0.0268 nM for the second.

B11 and B12 are the same in EC50: 0.0313 nM for the first, 0.0313 nM for the second.

B13 and B14 are within 1.5-fold of each other in EC50: 0.0356 nM for the first, 0.0412 nM for the second.

First: B15
Second: B16
The EC50 of the first is 1.8-fold higher: 0.0386 nM for the first, 0.0219 nM for the second. The second is the more potent here.

B17 gave an EC50 of 0.0261 nM.
